Laboratory results from patent US20240376198A1 (INHIBRX, published 2024).
Numbering of substitutions follows the chain as printed. Names may count otherwise.

B1: hz5D7v12-Fc xELL-Hole; and hz5D7v12-Fc xELL-Knob-IL2-T3A-H16A-E61R-P65R-D84Y-C125S (cx10454) (Fc fusion)
chain 1: EVQLVESGGGEVQPGGSLRLSCAASGRTFASAAMGWFRQAPGKEREFVAAISRSDDTYYAESVKGRFTISRDNAKNTVYLQMSSLRAEDTAVYYCAAVVPTYGSNIYVHSAAYNYWGQGTLVTVKPGGGGDKTHTCPPCPAPGGPSVFLFPPKPKDTLMISRTPEVTCVVVDVSHEDPEVKFNWYVDGVEVHNAKTKPREEQYNSTYRVVSVLTVLHQDWLNGKEYKCKVSNKALPAPIEKTISKAKGQPREPQVYTLPPCRDELTKNQVSLWCLVKGFYPSDIAVEWESNGQPENNYKTTPPVLDSDGSFFLYSKLTVDKSRWQQGNVFSCSVMHEALHNHYTQKSLSLSPGGSGGSAPASSSTKKTQLQLEALLLDLQMILNGINNYKNPKLTRMLTFKFYMPKKATELKHLQCLERELKRLEEVLNLAQSKNFHLRPRYLISNINVIVLELKGSETTFMCEYADETATIVEFLNRWITFSQSIISTLT
chain 2: EVQLVESGGGEVQPGGSLRLSCAASGRTFASAAMGWFRQAPGKEREFVAAISRSDDTYYAESVKGRFTISRDNAKNTVYLQMSSLRAEDTAVYYCAAVVPTYGSNIYVHSAAYNYWGQGTLVTVKPGGGGDKTHTCPPCPAPGGPSVFLFPPKPKDTLMISRTPEVTCVVVDVSHEDPEVKFNWYVDGVEVHNAKTKPREEQYNSTYRVVSVLTVLHQDWLNGKEYKCKVSNKALPAPIEKTISKAKGQPREPQVCTLPPSRDELTKNQVSLSCAVKGFYPSDIAVEWESNGQPENNYKTTPPVLDSDGSFFLVSKLTVDKSRWQQGNVFSCSVMHEALHNRYTQKSLSLSPG
B2: hz5D7v17-Fc xELL-Hole; and hz5D7v17-Fc xELL-Knob-IL2-T3A-H16A-E61R-P65R-D84Y-C125S (cx11314) (Fc fusion)
chain 1: B1 chain 1 with K125R
chain 2: EVQLVESGGGEVQPGGSLRLSCAASGRTFASAAMGWFRQAPGKEREFVAAISRSDDTYYAESVKGRFTISRDNAKNTVYLQMSSLRAEDTAVYYCAAVVPTYGSNIYVHSAAYNYWGQGTLVTVRPGGGGDKTHTCPPCPAPGGPSVFLFPPKPKDTLMISRTPEVTCVVVDVSHEDPEVKFNWYVDGVEVHNAKTKPREEQYNSTYRVVSVLTVLHQDWLNGKEYKCKVSNKALPAPIEKTISKAKGQPREPQVCTLPPSRDELTKNQVSLSCAVKGFYPSDIAVEWESNGQPENNYKTTPPVLDSDGSFFLVSKLTVDKSRWQQGNVFSCSVMHEALHNRYTQKSLSLSPGK
B3: NKp46-hz5D7v8-Fc* (Fc fusion)
chain: EVQLVESGGGEVQPGGSLRLSCAASGRTFASAAMGWFRQAPGKEREFVAAISRSVGDTYYADSVKGRFTISRDNAKNTVYLQMSSLRAEDTAVYYCAAVVPTYGNNIYVHSAAYNYWGQGTLVTVKPGGGGPSVFLFPPKPKDTLMISRTPEVTCVVVDVSHEDPEVKFNWYVDGVEVHNAKTKPREEQYNSTYRVVSVLTVLHQDWLNGKEYKCKVSNKALPAPIEKTISKAKGQPREPQVYTLPPSRDELTKNQVSLTCLVKGFYPSDIAVEWESNGQPENNYKTTPPVLDSDGSFFLYSKLTVDKSRWQQGNVFSCSVMHEALHNHYTQKSLSLSPG
notes: VHH-Fc fusion with an IgG1 Fc lacking a hinge (Fc*); also called NKp46-bz5D7v8-Fc*
B4: NKp46-hz5D7v9-Fc* (Fc fusion)
chain: B3 chain with G56D
notes: VHH-Fc fusion with an IgG1 Fc lacking a hinge (Fc*)
B5: NKp46-hz5D7v10-Fc* (Fc fusion)
chain: EVQLVESGGSLRLSCAASGRTFASAAMGWFRQAPGKEREFVAAISRSDDTYYADSVKGRFTISRDNAKNTVYLQMSSLRAEDTAVYYCAAVVPTYGNNIYVHSAAYNYWGQGTLVTVKPGGGGPSVFLFPPKPKDTLMISRTPEVTCVVVDVSHEDPEVKFNWYVDGVEVHNAKTKPREEQYNSTYRVVSVLTVLHQDWLNGKEYKCKVSNKALPAPIEKTISKAKGQPREPQVYTLPPSRDELTKNQVSLTCLVKGFYPSDIAVEWESNGQPENNYKTTPPVLDSDGSFFLYSKLTVDKSRWQQGNVFSCSVMHEALHNHYTQKSLSLSPG
notes: as for B4
B6: NKp46-hz5D7v1-Fc* (Fc fusion)
chain: EVQLVESGGGEVQPGGSLRLSCAASGRTFASAAMGWFRQAPGKGREFVAAISRSDDTYYAESVKGRFTISRDNAKNTLYLQMSSLRAEDTAVYYCAAVVPTYGNNIYVHSAAYNYWGQGTLVTVKPGGGGPSVFLFPPKPKDTLMISRTPEVTCVVVDVSHEDPEVKFNWYVDGVEVHNAKTKPREEQYNSTYRVVSVLTVLHQDWLNGKEYKCKVSNKALPAPIEKTISKAKGQPREPQVYTLPPSRDELTKNQVSLTCLVKGFYPSDIAVEWESNGQPENNYKTTPPVLDSDGSFFLYSKLTVDKSRWQQGNVFSCSVMHEALHNHYTQKSLSLSPG
notes: as for B4
B7: NKp46-hz5D7v4-Fc* (Fc fusion)
chain: B6 chain with G44E, E61D, L78V
notes: as for B4
B8: NKp46-hz5D7v2-Fc* (Fc fusion)
chain: B6 chain with G44E
notes: VHH-Fc fusion with an IgG1 Fc lacking a hinge (Fc*); also called NKp46-bz5D7v2-Fc*
B9: NKp46-hz5D7v7-Fc* (Fc fusion)
chain: B6 chain with G44E, D55G, E61D, L78V
notes: VHH-Fc fusion with an IgG1 Fc lacking a hinge (Fc*); also called NKp46-bz5D7v7-Fc*
B10: NKp46-5D7-Fc* (Fc fusion)
chain: QVTLRESGASLSLTCAASGRTFASAAMGWFRQAPGEEREFVAAISRSDDTYYADSVKGRFTISRDNAKNTVYLQMNSLKSEDTAVYYCAAVVPTYGNNIYVHSAAYNYWGQGTQVTVKPGGGGGPSVFLFPPKPKDTLMISRTPEVTCVVVDVSHEDPEVKFNWYVDGVEVHNAKTKPREEQYNSTYRVVSVLTVLHQDWLNGKEYKCKVSNKALPAPIEKTISKAKGQPREPQVYTLPPSRDELTKNQVSLTCLVKGFYPSDIAVEWESNGQPENNYKTTPPVLDSDGSFFLYSKLTVDKSRWQQGNVFSCSVMHEALHNHYTQKSLSLSPG
notes: VHH-Fc fusion with an IgG1 Fc lacking a hinge (Fc*); also called 5D7 VHH
B11: NKp46-hz5D7v12-Fc* (Fc fusion)
chain: B6 chain with G44E, L78V, N104S
notes: as for B4
B12: NKp46-hz5D7v15-Fc* (Fc fusion)
chain: B6 chain with G44E, L78V, N105A
notes: as for B4
B13: NKp46-hz5D7v13-Fc* (Fc fusion)
chain: B6 chain with G44E, L78V, N105T
notes: as for B4

These binders were tested against IL-2 receptor (human) (assay: cell-based or functional assay).

Binder	pSTAT5 EC50 on CD56brightCD16- NK cells	pSTAT5 EC50 on CD56dimCD16+ NK cells and total NK cells
B1	< 80 pM	< 0.4 nM
B2	< 80 pM	< 0.4 nM

What follows are binders tested against T1, cynomolgus NKp46 (cynomolgus monkey, UniProt Q95JB9 22-306) (assay: flow cytometry, HEK293F cells transfected with cyno NKp46).
T1 construct: also called cyno NKp46; cynomolgus monkey NKp46
Procedure: (§1) Binding of NKp46-binding polypeptides formatted as VHH-Fc fusion proteins was assessed by flow cytometry. An IgG1-Fc lacking a hinge, or a homodimeric Fc (FIG. 1I-1J) was used (the Fc lacking a hinge is annotated as Fc*). HEK293F cells were transiently transfected with a plasmid encoding full-length human NKp46, cynomolgus NKp46, or mouse NKp46, followed by an IRES and GFP. Transfected cells expressing NKp46 and GFP were used to measure binding of the polypeptides. The transfected cells were plated in a 96-well plate at 30,000 cells per well in FACS buffer (PBS, 1% BSA, 0.1% NaN₃, pH 7.4). Untransfected HEK293F cells were used as a NKp46-negative control and plated at 30,000 cells per well in a separate plate. Test polypeptides were then diluted to two times the final concentration of 1000 nM, and a 3-, 4-, or 5-fold, serial dilution was made. A final column was left with only FACS buffer as a secondary-only control. Test article dilutions were added to an equal volume of cells, and assay plates were incubated for 30 minutes at 4° C. After washing twice with 150 μL. of FACS buffer per well, the cells were resuspended in FACS buffer with α-hFc-647 secondary diluted 1:1000-2000. Assay plates were then left to incubate at 4° C. for 20-30 minutes. After one additional wash with 150 μL of FACS buffer, bound antibody was detected by flow cytometry. Flow cytometric detection was performed on an Intellicyt iQue Plus or Accuri iQue. NKp46 transfected cells were gated on as GFP positive, and polypeptide binding was measured as median fluorescence at 647 nm.

T1 sequence (Q95JB9 22-306 limits assumed): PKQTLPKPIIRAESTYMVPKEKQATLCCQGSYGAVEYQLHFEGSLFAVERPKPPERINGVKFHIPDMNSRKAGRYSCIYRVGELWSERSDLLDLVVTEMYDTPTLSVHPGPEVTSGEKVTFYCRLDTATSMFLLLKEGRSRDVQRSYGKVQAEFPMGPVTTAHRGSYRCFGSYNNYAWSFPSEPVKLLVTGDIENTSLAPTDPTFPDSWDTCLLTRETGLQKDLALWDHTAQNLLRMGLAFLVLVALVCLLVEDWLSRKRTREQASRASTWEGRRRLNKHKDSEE

Binder	Bmax (MFI)	Kd
B3	53500 MFI	0.526 nM
B4	61900 MFI	0.655 nM
B5	–	1.06 nM
B6	67600 MFI	0.691 nM
B7	–	0.446 nM
B8	51500 MFI	0.902 nM
B9	64600 MFI	0.703 nM
B10	58600 MFI	0.538 nM

Molecular target: T1, cynomolgus NKp46
Assay: as above
Remark: another data set of the same source
Procedure: as §1

Binder	Bmax (MFI)	Kd
B11	17900 MFI	0.455 nM
B12	16400 MFI	0.428 nM
B13	18800 MFI	0.748 nM

The binders below were run against T2, human NKp46 (human, UniProt O76036 22-304) (assay: flow cytometry, HEK293F cells transfected with human NKp46).
T2 construct: also called CD335; NCR1
Procedure: as §1

T2 sequence (O76036 22-304 Q82K): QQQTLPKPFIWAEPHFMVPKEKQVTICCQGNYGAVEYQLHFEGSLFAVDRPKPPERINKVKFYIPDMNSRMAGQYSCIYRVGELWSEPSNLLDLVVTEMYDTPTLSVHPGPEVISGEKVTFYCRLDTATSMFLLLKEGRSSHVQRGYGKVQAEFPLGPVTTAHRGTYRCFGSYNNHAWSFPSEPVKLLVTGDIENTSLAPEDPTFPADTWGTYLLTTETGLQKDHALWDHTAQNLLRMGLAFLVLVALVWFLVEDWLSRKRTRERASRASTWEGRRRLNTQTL

Binder	Bmax (MFI)	Kd
B3	930000 MFI	0.203 nM
B4	1.05e+06 MFI	0.392 nM
B5	–	0.269 nM
B6	790000 MFI	0.139 nM
B7	–	0.189 nM
B8	938000 MFI	0.762 nM
B9	866000 MFI	0.23 nM
B10	1.04e+06 MFI	0.172 nM

Molecular target: T2, human NKp46
Assay: as above
Remark: another data set of the same source
Procedure: as §1

Binder	Bmax (MFI)	Kd
B11	149000 MFI	0.14 nM
B12	143000 MFI	0.237 nM
B13	150000 MFI	0.234 nM

These binders were tested against T3, mouse NKp46 (mouse, UniProt Q8C567 17-325) (assay: flow cytometry, HEK293F cells transfected with mouse NKp46).
T3 construct: whole, on cells
T3 sequence (looked up): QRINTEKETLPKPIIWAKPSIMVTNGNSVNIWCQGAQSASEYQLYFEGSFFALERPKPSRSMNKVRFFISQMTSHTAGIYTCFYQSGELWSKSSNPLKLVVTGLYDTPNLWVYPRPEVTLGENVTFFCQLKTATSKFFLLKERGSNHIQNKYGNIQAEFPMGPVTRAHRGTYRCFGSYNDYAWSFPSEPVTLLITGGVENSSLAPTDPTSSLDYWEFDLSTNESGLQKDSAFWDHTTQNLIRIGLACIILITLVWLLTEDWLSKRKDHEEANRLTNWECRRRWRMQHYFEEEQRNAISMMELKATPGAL
Procedure: as §1

Binder	Bmax (MFI)	Kd
B3	1.12e+06 MFI	0.696 nM
B4	1.22e+06 MFI	0.941 nM
B5	–	0.82 nM
B6	1.17e+06 MFI	0.468 nM
B7	–	0.887 nM
B8	1.21e+06 MFI	0.729 nM
B9	1.17e+06 MFI	0.613 nM
B10	1.07e+06 MFI	0.487 nM

Molecular target: T3, mouse NKp46
Assay: as above
Remark: another data set of the same source
Procedure: as §1

Binder	Bmax (MFI)	Kd
B11	49300 MFI	0.513 nM
B12	34300 MFI	0.729 nM
B13	38100 MFI	0.604 nM
